Literature values as cited in publication PMC2647589.

Target: MeTRH (UniProt P20396)
UniProt P20396, sequence (P20396 whole entry, looked up): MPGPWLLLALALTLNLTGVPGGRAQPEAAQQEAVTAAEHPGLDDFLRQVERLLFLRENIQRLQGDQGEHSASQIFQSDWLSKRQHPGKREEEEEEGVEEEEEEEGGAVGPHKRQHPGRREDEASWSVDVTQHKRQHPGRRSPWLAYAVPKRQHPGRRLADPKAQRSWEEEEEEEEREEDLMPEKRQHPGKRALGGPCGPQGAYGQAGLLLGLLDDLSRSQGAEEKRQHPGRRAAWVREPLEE

Kd: 2 nM
Substance: TRH receptor (from UniProt P21761)
